In US20120164066A1 (University of Pennsylvania, published 2012):

B1: ALZ (designed binder)
chain: MAFCDGFYACYMDVGGGGGSMASDFLKHCQADHLLDEKGRAQCLLQREMVQSLEQQLVLEKEKLSAMQAHLAGKMALTKASSVASSDKLEHHHHHH
notes: AHNP on the N-terminus of the leucine zipper domain of human FOXP3, with a His-tag; The LZ domain is said to form dimers and tetramers; also called ALZ construct
B2: synthetic CH2-mimic peptide (peptide)
peptide: FPAPLAPGGLYLGG

What was measured:
[1] = biological target: T1, Her2/neu receptor expressed on cells (T6-17 cells; SKBR3 cells) (UniProt P04626 23-1255); assay: FACS on T6-17 cells, 45 min on ice, rabbit anti-His antibody and FITC anti-rabbit antibody
T1 construct: whole, on cells; also called p185 HER2/neu
Experimental: Experiments were conducted to determine whether the ALZ construct (SEQ ID NO. 5) could bind to T6-17 cells, which express the Her2/neu receptor. T6-17 cells were incubated with (dark line) or without (light line) ALZ for 45 min on ice and then with a rabbit anti-His antibody followed by a FITC-labeled anti-rabbit antibody. Other antigen-binding proteins were tested in this manner also.

[2] = biological target: T2, FcγIIIB Fc receptor (UniProt O75015 17-200); assay: Biacore
T2 construct: The form used in the Biacore experiments is not described; also called FcγIIIB receptor
Experimental: In some cases, antigen-binding protein can interact with an Fc receptor, which may facilitate cell-mediated cytotoxicity. Biacore experiments were conducted to determine whether the antigen-binding protein AHNP-CH2-mimic could bind to the FcγIIIB Fc receptor. […] The interaction between AFc, an antigen binding protein consisting of AHNP linked to the Fc region of an IgG1 antibody, and FcγIIIB was examined for comparative purposes. […] Since FcγIIIB is known to have low affinity to IgG1, the level of affinity observed for AHNP-CH2-mimic is very encouraging. Furthermore, a synthetic CH2-mimic peptide was also observed to compete with the monoclonal antibody 4D5 (IgG1) for binding to the FcγIIIB receptor when analyzed in Biacore experiments. Despite the observed competition for FcγIIIB, direct binding between the CH2-mimic peptide alone and FcγIIIB was not detected, possibly due to the inability for the interaction to be detected by Biacore.

T2 sequence (O75015 17-200): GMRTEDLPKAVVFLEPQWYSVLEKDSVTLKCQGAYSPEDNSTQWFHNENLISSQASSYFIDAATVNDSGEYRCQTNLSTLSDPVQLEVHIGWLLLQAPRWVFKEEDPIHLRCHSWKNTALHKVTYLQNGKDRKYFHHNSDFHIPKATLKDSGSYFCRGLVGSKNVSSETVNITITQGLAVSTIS

| Binder | binding result [1] | binding result [2] |
| --- | --- | --- |
| B1 | binds | – |
| B2 | – | no binding |
